{"source": "patent US20050238642A1", "about": "“Modified bouganin proteins, cytotoxins and methods and uses thereof” (priority 2004, published 2005)", "molecules": {"B1": {"name": "VB6-845-CL-de-bouganin: Fab anti-Ep-CAM de-bouganin construct, Bou156 linked at the C-terminus of the CL domain (protein)", "chain 1": "HHHHHHEVQLVQSGPGLVQPGGSVRISCAASGYTFTNYGMNWVKQAPGKGLEWMGWINTYTGESTYADSFKGRFTFSLDTSASAAYLQINSLRAEDTAVYYCARFAIKGDYWGQGTLLTVSSASTKGPSVFPLAPSSKSTSGGTAALGCLVKDYFPEPVTVSWNSGALTSGVHTFPAVLQSSGLYSLSSVVTVPSSSLGTQTYICNVNHKPSNTKVDKKVEPKSC", "chain 2": "DIQMTQSPSSLSASVGDRVTITCRSTKSLLHSNGITYLYWYQQKPGKAPKLLIYQMSNLASGVPSRFSSSGSGTDFTLTISSLQPEDFATYYCAQNLEIPRTFGQGTKVELKRTVAAPSVFIFPPSDEQLKSGTASVVCLLNNFYPREAKVQWKVDNALQSGNSQESVTEQDSKDSTYSLSSTLTLSKADYEKHKVYACEVTHQGLSSPVTKSFNRGECTRHRQPRGWEQLYNTVSFNLGEAYEYPTFIQDLRNELAKGTPVCQLPVTLQTIADDKRFVLVDITTTSKKTVKVAIDVTDVYVVGYQDKWDGKDRAVFLDKVPTVATSKLFPGVTNRVTLTFDGSYQKLVNAAKADRKALELGVNKLEFSIEAIHGKTINGQEAAKFFLIVIQMVSEAARFKYIETEVVDRGLYGSFKPNFKVLNLENNWGDISDAIHKSSPQCTTINPALQLISPSNDPWVVNKVSQISPDMGILKFKSSK"}, "B2": {"name": "scFv 845: the Ep-CAM antibody of VB6-845, head prints scFv 845 (IgG) (antibody, chains of the INN, looked up, V domains shown)", "VH": "EVQLVQSGPGLVQPGGSVRISCAASGYTFTNYGMNWVKQAPGKGLEWMGWINTYTGESTYADSFKGRFTFSLDTSASAAYLQINSLRAEDTAVYYCARFAIKGDYWGQGTLLTVSS", "VL": "DIQMTQSPSSLSASVGDRVTITCRSTKSLLHSNGITYLYWYQQKPGKAPKLLIYQMSNLASGVPSRFSSSGSGTDFTLTISSLQPEDFATYYCAQNLEIPRTFGQGTKVELK", "modifications": "scFv"}, "B3": {"name": "VB6-845 (Fab)", "chain 1": "EVQLVQSGPGLVQPGGSVRISCAASGYTFTNYGMNWVKQAPGKGLEWMGWINTYTGESTYADSFKGRFTFSLDTSASAAYLQINSLRAEDTAVYYCARFAIKGDYWGQGTLLTVSSASTKGPSVFPLAPSSKSTSGGTAALGCLVKDYFPEPVTVSWNSGALTSGVHTFPAVLQSSGLYSLSSVVTVPSSSLGTQTYICNVNHKPSNTKVDKKVEPKSCTRHRQPRGWEQLYNTVSFNLGEAYEYPTFIQDLRNELAKGTPVCQLPVTLQTIADDKRFVLVDITTTSKKTVKVAIDVTDVYVVGYQDKWDGKDRAVFLDKVPTVATSKLFPGVTNRVTLTFDGSYQKLVNAAKADRKALELGVNKLEFSIEAIHGKTINGQEAAKFFLIVIQMVSEAARFKYIETEVVDRGLYGSFKPNFKVLNLENNWGDISDAIHKSSPQCTTINPALQLISPSNDPWVVNKVSQISPDMGILKFKSSK", "chain 2": "HHHHHHDIQMTQSPSSLSASVGDRVTITCRSTKSLLHSNGITYLYWYQQKPGKAPKLLIYQMSNLASGVPSRFSSSGSGTDFTLTISSLQPEDFATYYCAQNLEIPRTFGQGTKVELKRTVAAPSVFIFPPSDEQLKSGTASVVCLLNNFYPREAKVQWKVDNALQSGNSQESVTEQDSKDSTYSLSSTLTLSKADYEKHKVYACEVTHQGLSSPVTKSFNRGEC", "notes": "also called Fab anti-Ep-CAM-de-bouganin (Bou156) construct"}}, "key": {"A-375": {"test_system": "A-375", "test": "Flow cytometry reactivity test (Example 7)", "assay_type": "binding", "details": "Ep-CAM-negative cell line A-375", "experimental": "(§1) The flow cytometry tests were conducted by incubating the constructs or control with 0.45×10^6 cells for an hour on ice. After washing, cell surface bound constructs were detected with a rabbit anti-bouganin (for FIG. 10A) or mouse anti-His tag (FIG. 10B) for an hour on ice. The cells were washed and incubated with FITC-conjugated sheep anti-rabbit IgG (FIG. 10A) and FITC-conjugated sheep anti-mouse (IgG) (FIG. 10B) for 30 minutes on ice. Subsequently the cells were washed, resuspended in PBS 5% FCS containing propidium iodide for assessment of antibody binding by flow cytometry."}, "CAL 27": {"test_system": "CAL 27", "test": "Flow cytometry reactivity test (Example 7)", "assay_type": "binding", "details": "Ep-CAM positive cell line CAL 27", "experimental": "as §1"}, "NIH:OVCAR-3": {"test_system": "NIH:OVCAR-3", "test": "Flow cytometry reactivity test (Example 7)", "assay_type": "binding", "details": "Ep-CAM positive cell line NIH:OVCAR-3", "experimental": "as §1"}, "tumor cell lines": {"test_system": "tumor cell lines", "test": "VB6-845 Tumor Cell Indications: binding for scFv 845 to tumor cell lines (median fluorescence)", "source_text": "Tumor-targeting cytotoxins are composed of the variable region of an antibody linked to a bacterial, fungal or plant toxin. The present study illustrates that the deimmunized bouganin constructs of the invention, comprising deimmunized bouganin linked to a targeting moiety have reduced immunogenicity, while still retaining their biological activity."}, "[1]": {"target": "T1, Ep-CAM (Epithelial Cell Adhesion Molecule) (human, UniProt P16422 24-314)", "T1 sequence": "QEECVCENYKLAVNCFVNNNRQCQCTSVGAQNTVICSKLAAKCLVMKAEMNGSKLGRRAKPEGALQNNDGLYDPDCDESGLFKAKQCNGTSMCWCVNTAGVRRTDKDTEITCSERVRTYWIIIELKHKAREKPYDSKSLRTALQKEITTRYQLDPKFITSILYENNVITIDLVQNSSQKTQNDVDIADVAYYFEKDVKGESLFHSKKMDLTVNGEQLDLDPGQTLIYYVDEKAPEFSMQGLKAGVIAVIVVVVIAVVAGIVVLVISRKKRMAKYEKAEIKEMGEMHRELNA", "test": "cell-based or functional assay"}, "[2]": {"target": "T1, Ep-CAM (Epithelial Cell Adhesion …)", "test": "cell-based or functional assay", "remark": "listed apart in the source"}, "[3]": {"target": "T1, Ep-CAM (Epithelial Cell Adhesion …)", "test": "flow cytometry, 10 µg/mL VB6-845 on HT-3 cells (cervical), anti-His detection; ± SEM"}, "[4]": {"target": "T1, Ep-CAM (Epithelial Cell Adhesion …)", "test": "flow cytometry, 10 µg/mL VB6-845 on C-4 I cells (cervical), anti-His detection; ± SEM"}, "[5]": {"target": "T1, Ep-CAM (Epithelial Cell Adhesion …)", "test": "flow cytometry, 10 µg/mL VB6-845 on SK-OV-3 cells (ovarian), anti-His detection; ± SEM"}, "[6]": {"target": "T1, Ep-CAM (Epithelial Cell Adhesion …)", "test": "flow cytometry, 10 µg/mL VB6-845 on RL95-2 cells (endometrial), anti-His detection; ± SEM"}, "[7]": {"target": "T1, Ep-CAM (Epithelial Cell Adhesion …)", "test": "flow cytometry, 10 µg/mL VB6-845 on HEC-1-A cells (endometrial), anti-His detection; ± SEM"}, "[8]": {"target": "T1, Ep-CAM (Epithelial Cell Adhesion …)", "test": "flow cytometry, 10 µg/mL VB6-845 on NIH:OVCAR-3 cells (ovarian, Ep-CAM-positive), anti-His detection; ± SEM"}, "[9]": {"target": "T1, Ep-CAM (Epithelial Cell Adhesion …)", "test": "flow cytometry, 10 µg/mL VB6-845 on C-33A cells (cervical; Ep-CAM status of the line not stated), anti-His detection; ± SEM"}, "[10]": {"target": "T1, Ep-CAM (Epithelial Cell Adhesion …)", "test": "flow cytometry, 10 µg/mL VB6-845 on TOV-112G cells (ovarian; Ep-CAM status of the line not stated), anti-His detection; ± SEM"}, "[11]": {"target": "T1, Ep-CAM (Epithelial Cell Adhesion …)", "test": "flow cytometry, 10 µg/mL VB6-845 on SK-UT-1 cells (endometrial; Ep-CAM status of the line not stated), anti-His detection; ± SEM"}}, "data": [{"molecule": "B1", "values": [{"measurement": "shift in median fluorescence", "setting": "A-375", "value": "No shift in median fluorescence"}, {"measurement": "shift in median fluorescence", "setting": "CAL 27", "value": "marked shift in median fluorescence"}, {"measurement": "shift in median fluorescence", "setting": "NIH:OVCAR-3", "value": "marked shift in median fluorescence"}]}, {"molecule": "B2", "values": [{"measurement": "Binding for scFv 845 (IgG): mean fold-increase in median fluorescence over the control antibody", "setting": "tumor cell lines; Bladder, 14 cell lines", "value": 59.6, "unit": "fold"}, {"measurement": "Binding for scFv 845 (IgG): mean fold-increase in median fluorescence over the control antibody", "setting": "tumor cell lines; Cervical, 3 cell lines", "value": 37.5, "unit": "fold"}, {"measurement": "Binding for scFv 845 (IgG): mean fold-increase in median fluorescence over the control antibody", "setting": "tumor cell lines; Endometrial, 1 cell line", "value": 23.8, "unit": "fold"}, {"measurement": "Binding for scFv 845 (IgG): mean fold-increase in median fluorescence over the control antibody", "setting": "tumor cell lines; Esophageal, 3 cell lines", "value": 72.4, "unit": "fold"}, {"measurement": "Binding for scFv 845 (IgG): mean fold-increase in median fluorescence over the control antibody", "setting": "tumor cell lines; Gastric, 3 cell lines", "value": 148.9, "unit": "fold"}, {"measurement": "Binding for scFv 845 (IgG): mean fold-increase in median fluorescence over the control antibody", "setting": "tumor cell lines; Head and Neck, 2 cell lines", "value": 11.4, "unit": "fold"}, {"measurement": "Binding for scFv 845 (IgG): mean fold-increase in median fluorescence over the control antibody", "setting": "tumor cell lines; Kidney, 3 cell lines", "value": 9.4, "unit": "fold"}, {"measurement": "Binding for scFv 845 (IgG): mean fold-increase in median fluorescence over the control antibody", "setting": "tumor cell lines; Lung, 3 cell lines", "value": 16.4, "unit": "fold"}, {"measurement": "Binding for scFv 845 (IgG): mean fold-increase in median fluorescence over the control antibody", "setting": "tumor cell lines; Melanoma, 3 cell lines", "value": 1.6, "unit": "fold"}, {"measurement": "Binding for scFv 845 (IgG): mean fold-increase in median fluorescence over the control antibody", "setting": "tumor cell lines; Ovarian, 2 cell lines", "value": 84.1, "unit": "fold"}, {"measurement": "Binding for scFv 845 (IgG): mean fold-increase in median fluorescence over the control antibody", "setting": "tumor cell lines; Pancreas, 3 cell lines", "value": 5.5, "unit": "fold"}, {"measurement": "Binding for scFv 845 (IgG): mean fold-increase in median fluorescence over the control antibody", "setting": "tumor cell lines; Prostate, 5 cell lines", "value": 50.1, "unit": "fold"}]}, {"molecule": "B3", "values": [{"measurement": "IC50 nM, MTS cytotoxicity assay, C-4 I cells (VB6-845 70% pure)", "setting": "[1]", "value": 1.7, "unit": "nM"}, {"measurement": "IC50 nM, MTS cytotoxicity assay, Caov-3 cells (VB6-845 70% pure)", "setting": "[1]", "value": 1.3, "unit": "nM"}, {"measurement": "IC50 nM, MTS cytotoxicity assay, HEC-1-A cells (VB6-845 70% pure)", "setting": "[1]", "value": 43, "unit": "nM"}, {"measurement": "IC50 nM, MTS cytotoxicity assay, HT-3 cells (VB6-845 70% pure)", "setting": "[1]", "value": 23, "unit": "nM"}, {"measurement": "IC50 nM, MTS cytotoxicity assay, KLE cells (VB6-845 70% pure)", "setting": "[1]", "value": "> 100", "unit": "nM"}, {"measurement": "IC50 nM, MTS cytotoxicity assay, ME-180 cells (VB6-845 70% pure)", "setting": "[1]", "value": 37, "unit": "nM"}, {"measurement": "IC50 nM, MTS cytotoxicity assay, MS751 cells (VB6-845 70% pure)", "setting": "[1]", "value": 0.43, "unit": "nM"}, {"measurement": "IC50 nM, MTS cytotoxicity assay, NIH-OVCAR-3 cells (VB6-845 70% pure)", "setting": "[1]", "value": 3.4, "unit": "nM"}, {"measurement": "IC50 nM, MTS cytotoxicity assay, RL95-2 cells (VB6-845 70% pure)", "setting": "[1]", "value": 100, "unit": "nM"}, {"measurement": "IC50 nM, MTS cytotoxicity assay, SK-OV-3 cells (VB6-845 70% pure)", "setting": "[1]", "value": "> 100", "unit": "nM"}, {"measurement": "IC50 nM, MTS cytotoxicity assay, NIH:OVCAR-3 cells (VB6-845 90% pure)", "setting": "[2]", "value": 1, "unit": "nM"}, {"measurement": "fold-increase in MF", "setting": "[3]", "value": 29.1, "unit": "fold"}, {"measurement": "fold-increase in MF", "setting": "[4]", "value": 6.8, "unit": "fold"}, {"measurement": "fold-increase in MF", "setting": "[5]", "value": 4.3, "unit": "fold"}, {"measurement": "fold-increase in MF", "setting": "[6]", "value": 4.9, "unit": "fold"}, {"measurement": "fold-increase in MF", "setting": "[7]", "value": 42.3, "unit": "fold"}, {"measurement": "fold-increase in MF", "setting": "[8]", "value": 33.6, "unit": "fold"}, {"measurement": "fold-increase in MF", "setting": "[9]", "value": 1.1, "unit": "fold"}, {"measurement": "fold-increase in MF", "setting": "[10]", "value": 1.1, "unit": "fold"}, {"measurement": "fold-increase in MF", "setting": "[11]", "value": 1.1, "unit": "fold"}]}]}
